Results taken from patent publication US11548923B2, “Peptide compositions and methods of use thereof for disrupting TEAD interactions” (Fred Hutchinson Cancer Center, priority 2017, dated 2023).
Where a SMILES comes first, the peptide text is derived from it. Bridges are numbered along the chain shown (N, C = ends).

Target: T1, TEAD (Homo sapiens, UniProt P28347)
T1 construct: GST; made in house; host or cells: Hi5 insect cells (baculovirus, BacMagic, pIEX-BAC3)
Test: Mammalian surface display (SDGF vector, HEK-293 cells) TEAD-binding flow cytometry
Conditions: 20 nM TEAD, Extra Wash protocol

T1 sequence (P28347 209-426): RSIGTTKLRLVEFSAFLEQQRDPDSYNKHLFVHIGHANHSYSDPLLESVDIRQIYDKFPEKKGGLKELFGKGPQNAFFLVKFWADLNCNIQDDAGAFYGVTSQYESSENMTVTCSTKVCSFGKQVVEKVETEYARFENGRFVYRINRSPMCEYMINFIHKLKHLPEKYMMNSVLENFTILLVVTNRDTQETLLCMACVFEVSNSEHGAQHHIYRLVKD

Compound	TEAD binding with the extra wash step
GSPDEYIERAKECCKKQDIQCCLRIFDESKDPNVMLICLFCP [SEQ ID NO: 11]	diminished binding

Same assay, conditions: HEK-293 suspension cells transfected with SDGF constructs

Compound	TEAD binding of cells displaying variant versus parent peptide
GSLERLKKCCNQGLDCEEARWKCEAEALFQGKNRETCLEEC [SEQ ID NO: 40]	loss of binding to TEAD
GSLERLKKCCNQGLDCEEARWKCELEAAFQGKNRETCLEEC [SEQ ID NO: 41]	loss of binding to TEAD
GSLERLKKCCNQGLDCEEARWKCELEALAQGKNRETCLEEC [SEQ ID NO: 42]	loss of binding to TEAD
GSLERLKKSSNQGLDSEEARWKSELEALFQGKNRETSLEES [SEQ ID NO: 185]	loss of binding to TEAD
GSPDEYIERAKECCKKGDIQCCLRYFAESGDPNVMLICLFCP [SEQ ID NO: 4]	loss of binding to TEAD
GSPDEYIERAKECCKKGDIQCCLRYFEESGDPNVALICLFCP [SEQ ID NO: 6]	loss of binding to TEAD
GSPDEYIERAKECCKKGDIQCCLRYFEESGDPNVMLICAFCP [SEQ ID NO: 5]	marginal loss of binding to TEAD
GSPDEYIERAKESSKKGDIQSSLRYFEESGDPNVMLISLFSP [SEQ ID NO: 184]	loss of binding to TEAD

Same assay, conditions: stained with 200 nM AF647-Streptavidin-TEAD

Compound	TEAD binding of HEK-293 cells expressing SDGF-peptide
CC[C@H](C)[C@@H]1NC(=O)[C@H](C)NC(=O)[C@H](CO)NC(=O)[C@@H]2CSSC[C@@H]3NC(=O)[C@H](CCC(N)=O)NC(=O)[C@H](CC(N)=O)NC(=O)[C@H](CC(N)=O)NC(=O)[C@H](CCC(N)=O)NC(=O)[C@H](CSSC[C@H](NC(=O)[C@H](CCC(N)=O)NC(=O)[C@H](CC(N)=O)NC(=O)[C@H](CC(=O)O)NC(=O)[C@H](Cc4ccc(O)cc4)NC(=O)[C@H](CC(C)C)NC(=O)CNC(=O)[C@H](Cc4ccccc4)NC(=O)[C@H](CO)NC(=O)CN)C(=O)N[C@@H](C)C(=O)N[C@@H]([C@@H](C)O)C(=O)N[C@@H](CO)C(=O)N[C@@H](CC(=O)O)C(=O)N[C@@H](C)C(=O)N2)NC(=O)[C@H](CCCCN)NC(=O)CNC(=O)[C@H](CCC(N)=O)NC(=O)CNC(=O)[C@H](CO)NC(=O)CNC(=O)[C@H]([C@@H](C)O)NC(=O)[C@H](Cc2c[nH]c4ccccc24)NC(=O)[C@H](Cc2ccc(O)cc2)NC(=O)[C@H](CCCCN)NC(=O)[C@H](CSSC[C@@H](C(=O)N[C@@H](Cc2ccc(O)cc2)C(=O)O)NC(=O)[C@H](CCCNC(=N)N)NC3=O)NC1=O [SEQ ID NO: 3] (H-GSFGLYDNQCATSDACSAICKYWTGSGQGKCQNNQCRCY-OH; disulfide 10-31, 16-36, 20-38)	displayed binding to TEAD
GSLERLKKCCNQGLDCEEARWKCELEALFQGKNRETCLEEC [SEQ ID NO: 2]	displayed binding to TEAD

Target: T2, biotinylated TEAD (Homo sapiens, UniProt P28347)
T2 construct: GST; made in house; host or cells: Hi5 insect cells (baculovirus, BacMagic, pIEX-BAC3)
Test: Surface plasmon resonance (SPR) binding of soluble peptides to captured biotinylated TEAD
Conditions: soluble peptides

T2 sequence (P28347 209-426): as the sequence (P28347 209-426) above

Compound	affinity/binding to TEAD as compared to a peptide of SEQ ID NO: 1
CC[C@H](C)[C@@H]1NC(=O)[C@H](C)NC(=O)[C@H](CO)NC(=O)[C@@H]2CSSC[C@@H]3NC(=O)[C@H](CCC(N)=O)NC(=O)[C@H](CC(N)=O)NC(=O)[C@H](CC(N)=O)NC(=O)[C@H](CCC(N)=O)NC(=O)[C@H](CSSC[C@H](NC(=O)[C@H](CCC(N)=O)NC(=O)[C@H](CC(N)=O)NC(=O)[C@H](CC(=O)O)NC(=O)[C@H](Cc4ccc(O)cc4)NC(=O)[C@H](CC(C)C)NC(=O)CNC(=O)[C@H](Cc4ccccc4)NC(=O)[C@H](CO)NC(=O)CN)C(=O)N[C@@H](C)C(=O)N[C@@H]([C@@H](C)O)C(=O)N[C@@H](CO)C(=O)N[C@@H](CC(=O)O)C(=O)N[C@@H](C)C(=O)N2)NC(=O)[C@H](CCCCN)NC(=O)CNC(=O)[C@H](CCC(N)=O)NC(=O)CNC(=O)[C@H](CO)NC(=O)CNC(=O)[C@H]([C@@H](C)O)NC(=O)[C@H](Cc2c[nH]c4ccccc24)NC(=O)[C@H](Cc2ccc(O)cc2)NC(=O)[C@H](CCCCN)NC(=O)[C@H](CSSC[C@@H](C(=O)N[C@@H](Cc2ccc(O)cc2)C(=O)O)NC(=O)[C@H](CCCNC(=N)N)NC3=O)NC1=O [SEQ ID NO: 3] (H-GSFGLYDNQCATSDACSAICKYWTGSGQGKCQNNQCRCY-OH; disulfide 10-31, 16-36, 20-38)	lower binding affinity for TEAD
GSPDEYIERAKECCKKGDIQCCLRYFEESGDPNVMLICAFCP [SEQ ID NO: 5]	reduced affinity for TEAD
